Test results reported in patent US20240239855A1 (CYTOKI PHARMA, published 2024).
Read-outs that look alike come from different tables or passages of the source. Values belong to the binder of their own block, whether it stands above or below them.

How the values were obtained:
Assay in all cases: cell-based or functional assay
[1] = biological target: T1, human IL-22 receptor (human IL-22Ra and human IL-10Rb) on cells (human, UniProt Q8N6P7 16-574; Q08334 20-325)
T1 sequence (looked up) 1: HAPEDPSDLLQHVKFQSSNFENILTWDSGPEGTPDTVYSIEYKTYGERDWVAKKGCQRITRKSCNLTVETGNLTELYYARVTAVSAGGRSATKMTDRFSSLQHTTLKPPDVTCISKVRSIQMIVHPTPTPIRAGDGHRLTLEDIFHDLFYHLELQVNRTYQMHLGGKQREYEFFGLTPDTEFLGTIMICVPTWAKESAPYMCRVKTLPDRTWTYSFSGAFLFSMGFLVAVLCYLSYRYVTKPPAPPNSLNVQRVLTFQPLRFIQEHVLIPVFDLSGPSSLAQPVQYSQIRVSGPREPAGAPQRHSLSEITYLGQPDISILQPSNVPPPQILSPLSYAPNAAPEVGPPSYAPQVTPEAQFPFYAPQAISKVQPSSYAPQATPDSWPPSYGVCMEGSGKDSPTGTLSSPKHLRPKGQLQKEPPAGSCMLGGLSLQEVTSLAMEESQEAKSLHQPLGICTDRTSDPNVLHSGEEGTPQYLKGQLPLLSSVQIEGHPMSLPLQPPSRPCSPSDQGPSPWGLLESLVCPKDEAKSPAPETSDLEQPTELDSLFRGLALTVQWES
T1 sequence (looked up) 2: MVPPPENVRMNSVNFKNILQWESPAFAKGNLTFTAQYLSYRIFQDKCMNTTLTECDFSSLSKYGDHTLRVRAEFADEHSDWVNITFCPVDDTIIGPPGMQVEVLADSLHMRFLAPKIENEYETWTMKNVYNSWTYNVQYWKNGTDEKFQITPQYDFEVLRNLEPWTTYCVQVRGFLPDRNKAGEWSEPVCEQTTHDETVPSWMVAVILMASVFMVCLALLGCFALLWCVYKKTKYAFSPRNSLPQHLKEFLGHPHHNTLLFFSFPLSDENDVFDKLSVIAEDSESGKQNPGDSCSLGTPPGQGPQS

[2] = biological target: T1, human IL-22 receptor (human IL-22Ra and …); remark: listed apart in the source
[3] = biological target: T1, human IL-22 receptor (human IL-22Ra and …); remark: listed apart in the source
[4] = biological target: T1, human IL-22 receptor (human IL-22Ra and …); remark: listed apart in the source
[5] = biological target: T1, human IL-22 receptor (human IL-22Ra and …); remark: listed apart in the source
[6] = biological target: T1, human IL-22 receptor (human IL-22Ra and …); remark: listed apart in the source
[7] = biological target: T1, human IL-22 receptor (human IL-22Ra and …); remark: listed apart in the source
[8] = biological target: T1, human IL-22 receptor (human IL-22Ra and …); remark: listed apart in the source

B3: Comparator 4 (ligand)
chain: GPGCPISSHCRLDKSNFQQPYITNRTFMLAKEASLADNNTDVRLIGEKLFHGVSMSERCYLMKQVLNFTLEEVLFPQSDRFQPYMQEVVPFLARLSNRLSTCHIEGDDLHIQRNVQKLKDTVKKLGESGEIKAIGELDLLFMSLRNACI
modifications: C18 diacid attached through linker γGlu-OEG-OEG-C2DA-Ac to Cys 1C
fold reduced potency compared to hIL-22, HepG2 cell assay for pSTAT3 [2]: 2.5 fold | fold reduction in potency compared to hIL-22, BHK cell reporter gene assay [2]: 7 fold | In vitro EC50, BHK cell reporter gene assay (STAT3-induced luciferase) [3]: 480 pM | EC50, BHK cell reporter gene assay (STAT3-induced luciferase) [1]: 480 pM | EC50, HepG2 cell assay for pSTAT3 (AlphaScreen SureFire STAT3 p-Tyr705) [4]: 10.1 nM

B4: Comparator 9 (ligand)
chain: GPGCPISSHCRLDKSNFQQPYITNRTFMLAKEASLADQNTDVRLIGEKLFHGVSMSERCYLMKQVLQFTLEEVLFPQSDRFQPYMQEVVPFLARLSNRLSTCHIEGDDLHIQRNVQKLKDTVKKLGESGEIKAIGELDLLFMSLRNACI
modifications: C18 diacid attached through linker γGlu-OEG-OEG-C2DA-Ac to Cys 1C
EC50, BHK cell reporter gene assay (STAT3-induced luciferase) [1]: 610 pM | EC50, HepG2 cell assay for pSTAT3 (AlphaScreen SureFire STAT3 p-Tyr705) [4]: 14.9 nM

B6: Comparator 6 (ligand)
chain: GPGCPISSHCRLDKSNFQQPYITNRTFMLAKEASLADNNTDVRLIGEKLFHGVSMSERCYLMKQVLNFTLEEVLFPQSDRFQPYMQEVVPFLARLSNRLSTCHIEGDDLHIQRNVQKLKDTVKKLGESGEIKAIGELDLLFMSLRNACI
modifications: C16 diacid attached through linker γGlu-OEG-OEG-C2DA-Ac to Cys 1C
fold reduction in potency compared to hIL-22, BHK cell reporter gene assay [2]: 4 fold | In vitro EC50, BHK cell reporter gene assay (STAT3-induced luciferase) [3]: 300 pM | EC50, BHK cell reporter gene assay (STAT3-induced luciferase) [1]: 300 pM

B8: Comparator 7 (ligand)
chain: GPGSGSGSCGSGSGSAPISSHCRLDKSNFQQPYITNRTFMLAKEASLADNNTDVRLIGEKLFHGVSMSERCYLMKQVLNFTLEEVLFPQSDRFQPYMQEVVPFLARLSNRLSTCHIEGDDLHIQRNVQKLKDTVKKLGESGEIKAIGELDLLFMSLRNACI
modifications: C16 diacid attached through linker γGlu-OEG-OEG-C2DA-Ac to Cys -7C (in the N-terminal peptide)
EC50, BHK cell reporter gene assay (STAT3-induced luciferase) [1]: 180 pM

B9: Comparator 5 (ligand)
chain: GPGSGSGSCGSGSGSAPISSHCRLDKSNFQQPYITNRTFMLAKEASLADNNTDVRLIGEKLFHGVSMSERCYLMKQVLNFTLEEVLFPQSDRFQPYMQEVVPFLARLSNRLSTCHIEGDDLHIQRNVQKLKDTVKKLGESGEIKAIGELDLLFMSLRNACI
modifications: C18 diacid attached through linker γGlu-OEG-OEG-C2DA-Ac to Cys -7C (in the N-terminal peptide)
EC50, HepG2 cell assay for pSTAT3 (AlphaScreen SureFire STAT3 p-Tyr705) [4]: 6.98 nM

B10: Comparator 11 (ligand)
chain: GAPISSCCRLDKSNFQQPYITNRTFMLAKEASLADQNTDVRLIGEKLFHGVSMSERCYLMKQVLQFTLEEVLFPQSDRFQPYMQEVVPFLARLSNRLSTCHIEGDDLHIQRNVQKLKDTVKKLGESGEIKAIGELDLLFMSLRNACI
modifications: C18 diacid attached through linker γGlu-OEG-OEG-C2DA-Ac to Cys 6C
EC50, BHK cell reporter gene assay (STAT3-induced luciferase) [1]: 1240 pM

B13: Comparator 1 (ligand)
chain: APISSHCRLDKSNFQQPYITNRTFMLAKEASLADQNTDVRLIGEKLFHGVSMSERCYLMKQVLQFTLEEVLFPQSDRFQPYMQEVVPFLARLSNRLSTCHIEGDDCHIQRNVQKLKDTVKKLGESGEIKAIGELDLLFMSLRNACI
modifications: C18 diacid attached through linker γGlu-OEG-OEG-C2DA-Ac to Cys 106C
EC50, BHK cell reporter gene assay (STAT3-induced luciferase) [6]: 230 pM | Fold change EC50 compared to hIL-22, BHK cell reporter gene assay [6]: 3 fold

B15: Comparator 12 (ligand)
chain: APISSHCRLDKSNFQQPYITNRTFMLAKEASLCDQNTDVRLIGEKLFHGVSMSERCYLMKQVLQFTLEEVLFPQSDRFQPYMQEVVPFLARLSNRLSTCHIEGDDLHIQRNVQKLKDTVKKLGESGEIKAIGELDLLFMSLRNACI
modifications: C18 diacid attached through linker γGlu-OEG-OEG-C2DA-Ac to Cys 33C
EC50, BHK cell reporter gene assay (STAT3-induced luciferase) [1]: 280 pM

B17: Comparator 3 (ligand)
chain: APISSHCRLDKSNFQQPYITNRTFMLAKEASLADNNTDVRLIGEKLFHGVSMSERCYLMKQVLNFTLEEVLFPQSDRFQPYMQEVVPFLARLSNRLSTCHIEGDDCHIQRNVQKLKDTVKKLGESGEIKAIGELDLLFMSLRNACI
modifications: C18 diacid attached through linker γGlu-OEG-OEG-C2DA-Ac to Cys 106C
EC50, BHK cell reporter gene assay (STAT3-induced luciferase), second laboratory [7]: 85 pM | Fold change EC50 compared to hIL-22, BHK cell reporter gene assay, second laboratory [7]: 3 fold

B18: Comparator 2 (ligand)
chain: APISSHCRLDKSNFQQPYITNRTFMLAKEASLADQNTDVRLIGEKLFHGVSMSERCYLMKQVLQFTLEEVLFPQSDRFQPYMQEVVPFLARLSNCLSTCHIEGDDLHIQRNVQKLKDTVKKLGESGEIKAIGELDLLFMSLRNACI
modifications: C18 diacid attached through linker γGlu-OEG-OEG-C2DA-Ac to Cys 95C
EC50, BHK cell reporter gene assay (STAT3-induced luciferase) [6]: 360 pM | Fold change EC50 compared to hIL-22, BHK cell reporter gene assay [6]: 5 fold

Other lines, results leading:

EC50, BHK cell reporter gene assay (STAT3-induced luciferase) [1]: 190 pM
B1: Comparator 18 (ligand)
chain: GPGCPISSHCRLDKSNFQQPYITNRTFMLAKEASLADQNTDVRLIGEKLFHGVSMSERCYLMKQVLQFTLEEVLFPQSDRFQPYMQEVVPFLARLSNRLSTCHIEGDDLHIQRNVQKLKDTVKKLGESGEIKAIGELDLLFMSLRNACI

EC50, BHK cell reporter gene assay (STAT3-induced luciferase) [1]: 370 pM
B2: Comparator 13 (ligand)
chain: GPGCPISSHCRLDKSNFQQPYITNRTFMLAKEASLADQNTDVRLIGEKLFHGVSMSERCYLMKQVLQFTLEEVLFPQSDRFQPYMQEVVPFLARLSNRLSTCHIEGDDLHIQRNVQKLKDTVKKLGESGEIKAIGELDLLFMSLRNACI
modifications: C16 diacid attached through linker γGlu-OEG-OEG-C2DA-Ac to Cys 1C

EC50, BHK cell reporter gene assay (STAT3-induced luciferase) [1]: 90 pM | EC50, HepG2 cell assay for pSTAT3 (AlphaScreen SureFire STAT3 p-Tyr705) [4]: 12.1 nM
B5: Comparator 17 (ligand)
chain: GPGCPISSHCRLDKSNFQQPYITNRTFMLAKEASLADNNTDVRLIGEKLFHGVSMSERCYLMKQVLNFTLEEVLFPQSDRFQPYMQEVVPFLARLSNRLSTCHIEGDDLHIQRNVQKLKDTVKKLGESGEIKAIGELDLLFMSLRNACI

EC50, BHK cell reporter gene assay (STAT3-induced luciferase) [5]: 60 pM | In vitro EC50, BHK cell reporter gene assay (STAT3-induced luciferase) [3]: 60 pM
B7: Derivative 1 (ligand)
chain: GPGCPISSHCRLDKSNFQQPYITNRTFMLAKEASLADNNTDVRLIGEKLFHGVSMSERCYLMKQVLNFTLEEVLFPQSDRFQPYMQEVVPFLARLSNRLSTCHIEGDDLHIQRNVQKLKDTVKKLGESGEIKAIGELDLLFMSLRNACI
modifications: C16 monoacid attached through linker γGlu-OEG-OEG-εLys-αAc to Cys 1C (position 1 of hIL-22; position 4 in the sequence listing entry)

EC50, BHK cell reporter gene assay (STAT3-induced luciferase) [5]: 70 pM | EC50, BHK cell reporter gene assay (STAT3-induced luciferase) [1]: 70 pM | EC50, HepG2 cell assay for pSTAT3 (AlphaScreen SureFire STAT3 p-Tyr705) [4]: 3.88 nM | EC50, BHK cell reporter gene assay (STAT3-induced luciferase) [6]: 70 pM | EC50, BHK cell reporter gene assay (STAT3-induced luciferase), second laboratory [7]: 27 pM | EC50, BHK cell reporter gene assay (STAT3-induced luciferase), second laboratory [8]: 30 pM
B11: native mature human IL-22 (hIL-22) (ligand)
chain: APISSHCRLDKSNFQQPYITNRTFMLAKEASLADNNTDVRLIGEKLFHGVSMSERCYLMKQVLNFTLEEVLFPQSDRFQPYMQEVVPFLARLSNRLSTCHIEGDDLHIQRNVQKLKDTVKKLGESGEIKAIGELDLLFMSLRNACI

EC50, BHK cell reporter gene assay (STAT3-induced luciferase), second laboratory [8]: 30 pM
B12: Derivative 2 (ligand)
chain: CPISSHCRLDKSNFQQPYITNRTFMLAKEASLADNNTDVRLIGEKLFHGVSMSERCYLMKQVLNFTLEEVLFPQSDRFQPYMQEVVPFLARLSNRLSTCHIEGDDLHIQRNVQKLKDTVKKLGESGEIKAIGELDLLFMSLRNACI
modifications: C16 monoacid attached through linker γGlu-OEG-OEG-εLys-αAc to Cys 1C

EC50, BHK cell reporter gene assay (STAT3-induced luciferase), second laboratory [7]: 310 pM | Fold change EC50 compared to hIL-22, BHK cell reporter gene assay, second laboratory [7]: 11 fold
B14: Comparator 19 (ligand)
chain: APISSHCRLDKSNFQQPYITNRTFMLAKEASLADNNTDVRLIGEKLFHGVSMSERCYLMKQVLNFTLEEVLFPQSDRFQPYMQEVVPFLARLSNCLSTCHIEGDDLHIQRNVQKLKDTVKKLGESGEIKAIGELDLLFMSLRNACI
modifications: C18 diacid attached through linker γGlu-OEG-OEG-C2DA-Ac to Cys 95C

In vitro EC50, BHK cell reporter gene assay (STAT3-induced luciferase) [3]: 60 pM | EC50, BHK cell reporter gene assay (STAT3-induced luciferase) [1]: 60 pM | EC50, HepG2 cell assay for pSTAT3 (AlphaScreen SureFire STAT3 p-Tyr705) [4]: 4.73 nM
B16: Comparator 14 (ligand)
chain: GPISSHCRLDKSNFQQPYITNRTFMLAKEASLADNNTDVRLIGEKLFHGVSMSERCYLMKQVLNFTLEEVLFPQSDRFQPYMQEVVPFLARLSNRLSTCHIEGDDLHIQRNVQKLKDTVKKLGESGEIKAIGELDLLFMSLRNACI
